Data from patent US20160002331A1 (Pfizer, published 2016).
Where “and” joins values, the source holds several entries; their conditions need not be identical. Identical values can stand only once.

T1: human Notch1 NRR_Avi_His recombinant protein (human, UniProt P46531 1434-1737)
T1 construct: Secreted from CHO-PACE cells; cleaved at S1 into an N-terminal ~26 kDa half (LNR-A, B, C, HD1) and a C-terminal ~12 kDa half (HD2 and tag) that stay associated non-covalently; written here as one chain; also called recombinant human Notch1 NRR; human Notch1 NRR immunogen
T1 sequence: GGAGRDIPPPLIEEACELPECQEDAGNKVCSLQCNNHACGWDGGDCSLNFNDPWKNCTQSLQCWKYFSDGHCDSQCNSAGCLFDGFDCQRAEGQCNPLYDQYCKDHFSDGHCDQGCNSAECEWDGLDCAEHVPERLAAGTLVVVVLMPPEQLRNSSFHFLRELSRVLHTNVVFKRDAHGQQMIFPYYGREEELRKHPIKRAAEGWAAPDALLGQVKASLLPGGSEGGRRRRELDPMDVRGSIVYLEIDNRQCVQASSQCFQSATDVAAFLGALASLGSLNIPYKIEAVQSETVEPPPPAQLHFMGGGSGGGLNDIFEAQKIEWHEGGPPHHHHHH

B1: humanized 438 VH1.1/VL1.1 (antibody, human IgG1, V domains shown)
VH: EVQLVESGGGLVQPGGSLRLSCAASGFTFSSFAMAWVRQAPGKGLEWVASISYGGADTYYRDSVKGRFTISRDNAKNSLYLQMNSLRAEDTAVYYCAKDLPYYGYTPFVMDAWGQGTLVTVSS
VL: DIQLTQSPSSLSASVGDRVTITCRASQRINTDLHWYQQKPGKAPKVLIKFASQTISGVPSRFSGSGSGTDFTLTISSLQPEDFATYYCQQSNSWPYTFGQGTKLEIK
B2: humanized 438 VH1.0/VL1.1 (antibody, human IgG1, V domains shown)
VH: EVQLVESGGGLVQPGGSLRLSCAASGFTFSSFAMAWVRQAPGKGLEWVASISYGGADTYYRDSVKGRFTISRDNAKNSLYLQMNSLRAEDTAVYYCARDLPYYGYTPFVMDAWGQGTLVTVSS
VL: DIQLTQSPSSLSASVGDRVTITCRASQRINTDLHWYQQKPGKAPKVLIKFASQTISGVPSRFSGSGSGTDFTLTISSLQPEDFATYYCQQSNSWPYTFGQGTKLEIK
B3: humanized 438 VH1.1/VL1.9 (antibody, human IgG1, V domains shown)
VH: EVQLVESGGGLVQPGGSLRLSCAASGFTFSSFAMAWVRQAPGKGLEWVASISYGGADTYYRDSVKGRFTISRDNAKNSLYLQMNSLRAEDTAVYYCAKDLPYYGYTPFVMDAWGQGTLVTVSS
VL: DIMLTQSPSSLSASVGDRVTITCRASQRINTDLHWYQQKPGKAPKVLIKFASQTISGVPSRFSGSGSGTDFTLTISSLQPEDFATYYCQQSNSWPYTFGQGTKLEIK
B4: rat 438-hIgG1 (antibody, V domains shown)
VH: AVQLVESGGGLVQPGRSLKLSCTASGFTFSSFAMAWVRQAPTKGLEWVASISYGGADTYYRDSVKGRFTISRDNAKSSLYLQMDSLRSEDTSTYYCAKDLPYYGYTPFVMDAWGQGTSVTVSS
VL: DIMLTQSPPTLSVTPGETISLSCRASQRINTDLHWYQQKPNESPRVLIKFASQTISGVPSRFSGSGSGTDFTLNINRVEPEDFSVYYCQQSNSWPYTFGAGTKLELK
notes: also called r438-hIgG
B5: rat 351(R58Y/V60R)-mIgG1 (antibody, V domains shown)
VH: EVQLVESGGGLVQPGRSLKVSCLASGFTFSHYGMNWIRQAPGKGLDWVASISRSGSYIYYRDTVKGRFTVSRDIAKNTLYLQMTSLRSEDTALYYCAREGQFGDYFEYWGQGVMVTVSS
VL: DIMLTQSPATLSVTPGERISLSCRASQKISTNLHWYQQKPNESPRILIKYASQTISGIPSRFSGSGSGTDFTLHINTVEPEDFSVYYCQQTNSWPLTFGSGTKLEIK
B6: parental rat 438 (antibody, V domains shown)
VH: AVQLVESGGGLVQPGRSLKLSCTASGFTFSSFAMAWVRQAPTKGLEWVASISYGGADTYYRDSVKGRFTISRDNAKSSLYLQMDSLRSEDTSTYYCAKDLPYYGYTPFVMDAWGQGTSVTVSS
VL: DIMLTQSPPTLSVTPGETISLSCRASQRINTDLHWYQQKPNESPRVLIKFASQTISGVPSRFSGSGSGTDFTLNINRVEPEDFSVYYCQQSNSWPYTFGAGTKLELK
notes: Rat monoclonal IgG from a hybridoma

What was measured:
[1] = target: T2, full-length mouse Notch1 expressed on the cell surface of U-2 OS cells (mouse, UniProt Q01705 19-2531); test: cell-based ELISA, U-2 OS cells expressing full-length mouse Notch1
T2 construct: whole, on cells; also called murine Notch1
Experimental: (§1) Supernatants from clones displaying positive binding to immunogens in recombinant Notch1 NRR based ELISAs described above were then screened for cell surface Notch1 binding in a cell-based ELISA. U-2 OS cells stably overexpressing human or mouse full length Notch1 protein on cell surface were plated at 50,000 cells/well in 96 well plates (white opaque, BD/VWR) the day before ELISA assay. On the day of the ELISA, culture media were removed from wells and serially diluted (1:3 in blocking buffer) antibody solutions or hybridoma culture supernatants were applied to the plate. Plates were incubated at room temperature for 2 hours before being washed with PBS-Mg/Ca. HRP-conjugated secondary antibody was then applied and incubated with cells for 1 hour as described above for recombinant protein ELISA. Plates were washed with PBS-Mg/Ca before being developed with Pico-Chemiluminescent developing kit (Thermal Scientific), and chemiluminescence measurements were performed per manufacturer's instructions. Data plotting and analyses were performed with Microsoft Excel and Graphpad-Prizm software.

[2] = target: T3, full-length human Notch1 expressed on the cell surface (human, UniProt P46531 19-2555); test: cell-based ELISA, U-2 OS cells expressing full-length human Notch1
T3 construct: whole, on cells; On U-2 OS cells stably overexpressing it (ELISAs, reporter cells); also called cell surface full-length human Notch1; native Notch1 receptor
Experimental: as §1

[3] = target: T3, full-length human Notch1 expressed on …; test: cell-based or functional assay
[4] = target: T3, full-length human Notch1 expressed on …; test: competition ELISA on U-2 OS cells expressing full-length human Notch1; competitor 0.8 nM biotinylated rat 438
Experimental: (§2) In a similar manner as described for recombinant protein or cell based ELISAs, 96 well cell culture plates were either coated with Notch1 NRR-Avi_His protein (hi-bound co-Star plates), or seeded with full length Notch1 expressing U-2 OS cells (cell culture plate, Co-star), respectively.
(§3) After incubation for 2 hours, the plates were washed, as described above, and HRP-conjugated streptavidin (Southern Biotech) diluted 1:5000 in blocking buffer was applied. Incubation with streptavidin was allowed for 30 min before the plates were washed again and developed with TMB solution for 10 minutes. Developing reaction was stopped by adding 0.18M H₂SO₄ and absorbance at 450 nm was measured. Data plotting and analyses were performed with Microsoft Excel and Graphpad-Prizm software.

[5] = target: T1, human Notch1 NRR_Avi_His recombinant …; test: competition ELISA on coated human Notch1 NRR_Avi_His; competitor 0.8 nM biotinylated rat 438
Experimental: as §2, §3

[6] = target: T1, human Notch1 NRR_Avi_His recombinant …; test: SPR (Biacore T100), ratio of KD to that of rat 438-hIgG1
Experimental: (§4) The kinetic constants of the anti-Notch1 NRR interactions were determined by surface plasmon resonance (Biacore® T100, Biacore Inc., Piscataway, N.J.). Flow cells of a CM5 chip were immobilized with approximately 10,000 Resonance Unit (RU) of anti-human IgG-Fc (Biacore®) in 10 mM Glycine, pH 5.0 at 10 μl/min for 600 seconds. […] Association of four concentrations of human Notch1 NRR_Avi_His recombinant protein (from 3.7-100 nM) and a zero concentration (running buffer) at 100 μl/min were recorded for 3 minutes in TBS with 1 mM CaCl₂. Dissociation of the complexes was measured for 10 minutes. The surface of the chip was regenerated by injecting 3M MgCl₂ with 3 mM EGTA for 60 seconds at 10 μl/min. Curves obtained after subtraction of the reference and buffer signals were fitted to a 1:1 Langmuir binding model with Biacore® T100 Evaluation Software (Biacore®).

[7] = target: T1, human Notch1 NRR_Avi_His recombinant …; test: SPR (Biacore T100), antibody captured by anti-human IgG-Fc, NRR_Avi_His as analyte, 1:1 Langmuir model
Experimental: as §4

[8] = target: T3, full-length human Notch1 expressed on …; test: cell-based or functional assay; remark: listed apart in the source

T3 sequence (P46531 19-2555): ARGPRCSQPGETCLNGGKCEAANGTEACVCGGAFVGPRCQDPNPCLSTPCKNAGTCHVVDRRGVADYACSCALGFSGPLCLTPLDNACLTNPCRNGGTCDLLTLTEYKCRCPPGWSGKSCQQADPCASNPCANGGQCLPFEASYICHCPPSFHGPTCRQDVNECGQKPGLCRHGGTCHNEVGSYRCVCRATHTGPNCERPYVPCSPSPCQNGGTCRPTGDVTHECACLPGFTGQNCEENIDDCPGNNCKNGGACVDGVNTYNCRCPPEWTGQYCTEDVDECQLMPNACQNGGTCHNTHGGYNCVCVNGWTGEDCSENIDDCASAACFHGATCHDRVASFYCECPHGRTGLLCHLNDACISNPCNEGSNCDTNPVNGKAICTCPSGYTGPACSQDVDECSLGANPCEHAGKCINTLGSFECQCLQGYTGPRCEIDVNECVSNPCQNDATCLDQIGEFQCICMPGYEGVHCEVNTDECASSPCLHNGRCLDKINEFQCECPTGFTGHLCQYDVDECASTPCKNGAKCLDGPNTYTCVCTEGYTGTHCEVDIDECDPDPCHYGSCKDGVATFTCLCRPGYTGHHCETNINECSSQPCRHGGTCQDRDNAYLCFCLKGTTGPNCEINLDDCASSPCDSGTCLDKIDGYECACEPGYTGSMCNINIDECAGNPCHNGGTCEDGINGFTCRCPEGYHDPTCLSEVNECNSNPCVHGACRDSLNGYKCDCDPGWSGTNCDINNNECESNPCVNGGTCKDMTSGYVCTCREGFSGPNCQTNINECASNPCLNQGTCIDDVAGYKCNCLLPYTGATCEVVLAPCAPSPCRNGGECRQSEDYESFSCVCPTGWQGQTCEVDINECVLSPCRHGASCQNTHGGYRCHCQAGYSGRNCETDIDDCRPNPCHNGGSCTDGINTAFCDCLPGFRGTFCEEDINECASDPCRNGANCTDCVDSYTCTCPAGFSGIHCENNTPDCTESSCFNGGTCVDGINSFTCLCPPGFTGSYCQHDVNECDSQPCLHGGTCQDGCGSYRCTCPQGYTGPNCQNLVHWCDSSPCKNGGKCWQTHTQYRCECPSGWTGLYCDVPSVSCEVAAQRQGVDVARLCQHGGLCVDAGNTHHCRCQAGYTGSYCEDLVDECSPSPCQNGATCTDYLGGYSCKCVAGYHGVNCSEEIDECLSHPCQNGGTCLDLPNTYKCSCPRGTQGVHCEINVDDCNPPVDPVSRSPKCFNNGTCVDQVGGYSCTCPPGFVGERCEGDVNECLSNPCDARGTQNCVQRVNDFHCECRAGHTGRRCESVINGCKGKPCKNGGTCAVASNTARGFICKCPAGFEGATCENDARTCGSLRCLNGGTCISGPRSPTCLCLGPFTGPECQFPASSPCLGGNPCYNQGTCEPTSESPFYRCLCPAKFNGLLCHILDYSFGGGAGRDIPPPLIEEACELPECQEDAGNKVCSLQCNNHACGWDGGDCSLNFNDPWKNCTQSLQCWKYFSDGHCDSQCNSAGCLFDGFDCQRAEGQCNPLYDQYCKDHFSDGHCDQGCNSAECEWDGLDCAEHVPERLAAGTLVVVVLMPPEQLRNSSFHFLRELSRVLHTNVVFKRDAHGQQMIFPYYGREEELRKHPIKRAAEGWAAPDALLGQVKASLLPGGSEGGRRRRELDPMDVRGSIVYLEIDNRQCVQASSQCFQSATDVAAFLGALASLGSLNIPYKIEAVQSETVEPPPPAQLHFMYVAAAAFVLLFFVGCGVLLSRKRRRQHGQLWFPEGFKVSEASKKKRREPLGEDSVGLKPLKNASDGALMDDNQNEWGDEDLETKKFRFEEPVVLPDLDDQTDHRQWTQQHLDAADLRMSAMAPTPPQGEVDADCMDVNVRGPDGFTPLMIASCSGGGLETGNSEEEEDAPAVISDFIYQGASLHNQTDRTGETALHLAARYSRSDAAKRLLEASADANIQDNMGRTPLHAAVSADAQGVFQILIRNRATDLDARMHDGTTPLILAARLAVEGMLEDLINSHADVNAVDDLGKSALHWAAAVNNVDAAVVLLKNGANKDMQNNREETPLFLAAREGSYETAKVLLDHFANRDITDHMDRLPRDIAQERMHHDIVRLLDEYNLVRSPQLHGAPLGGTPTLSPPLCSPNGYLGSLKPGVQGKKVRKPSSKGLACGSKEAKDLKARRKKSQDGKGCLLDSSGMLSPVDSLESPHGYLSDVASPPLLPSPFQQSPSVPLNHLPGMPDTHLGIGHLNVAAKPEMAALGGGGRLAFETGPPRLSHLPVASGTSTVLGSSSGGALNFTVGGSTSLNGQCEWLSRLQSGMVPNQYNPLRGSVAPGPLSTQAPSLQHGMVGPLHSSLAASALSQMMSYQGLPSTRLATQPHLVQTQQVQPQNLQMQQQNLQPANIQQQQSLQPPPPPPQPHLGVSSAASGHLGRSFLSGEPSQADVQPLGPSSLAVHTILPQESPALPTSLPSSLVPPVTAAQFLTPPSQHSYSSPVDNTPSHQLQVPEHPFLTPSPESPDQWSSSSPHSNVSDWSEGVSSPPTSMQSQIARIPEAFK
T2 sequence (Q01705 19-2531): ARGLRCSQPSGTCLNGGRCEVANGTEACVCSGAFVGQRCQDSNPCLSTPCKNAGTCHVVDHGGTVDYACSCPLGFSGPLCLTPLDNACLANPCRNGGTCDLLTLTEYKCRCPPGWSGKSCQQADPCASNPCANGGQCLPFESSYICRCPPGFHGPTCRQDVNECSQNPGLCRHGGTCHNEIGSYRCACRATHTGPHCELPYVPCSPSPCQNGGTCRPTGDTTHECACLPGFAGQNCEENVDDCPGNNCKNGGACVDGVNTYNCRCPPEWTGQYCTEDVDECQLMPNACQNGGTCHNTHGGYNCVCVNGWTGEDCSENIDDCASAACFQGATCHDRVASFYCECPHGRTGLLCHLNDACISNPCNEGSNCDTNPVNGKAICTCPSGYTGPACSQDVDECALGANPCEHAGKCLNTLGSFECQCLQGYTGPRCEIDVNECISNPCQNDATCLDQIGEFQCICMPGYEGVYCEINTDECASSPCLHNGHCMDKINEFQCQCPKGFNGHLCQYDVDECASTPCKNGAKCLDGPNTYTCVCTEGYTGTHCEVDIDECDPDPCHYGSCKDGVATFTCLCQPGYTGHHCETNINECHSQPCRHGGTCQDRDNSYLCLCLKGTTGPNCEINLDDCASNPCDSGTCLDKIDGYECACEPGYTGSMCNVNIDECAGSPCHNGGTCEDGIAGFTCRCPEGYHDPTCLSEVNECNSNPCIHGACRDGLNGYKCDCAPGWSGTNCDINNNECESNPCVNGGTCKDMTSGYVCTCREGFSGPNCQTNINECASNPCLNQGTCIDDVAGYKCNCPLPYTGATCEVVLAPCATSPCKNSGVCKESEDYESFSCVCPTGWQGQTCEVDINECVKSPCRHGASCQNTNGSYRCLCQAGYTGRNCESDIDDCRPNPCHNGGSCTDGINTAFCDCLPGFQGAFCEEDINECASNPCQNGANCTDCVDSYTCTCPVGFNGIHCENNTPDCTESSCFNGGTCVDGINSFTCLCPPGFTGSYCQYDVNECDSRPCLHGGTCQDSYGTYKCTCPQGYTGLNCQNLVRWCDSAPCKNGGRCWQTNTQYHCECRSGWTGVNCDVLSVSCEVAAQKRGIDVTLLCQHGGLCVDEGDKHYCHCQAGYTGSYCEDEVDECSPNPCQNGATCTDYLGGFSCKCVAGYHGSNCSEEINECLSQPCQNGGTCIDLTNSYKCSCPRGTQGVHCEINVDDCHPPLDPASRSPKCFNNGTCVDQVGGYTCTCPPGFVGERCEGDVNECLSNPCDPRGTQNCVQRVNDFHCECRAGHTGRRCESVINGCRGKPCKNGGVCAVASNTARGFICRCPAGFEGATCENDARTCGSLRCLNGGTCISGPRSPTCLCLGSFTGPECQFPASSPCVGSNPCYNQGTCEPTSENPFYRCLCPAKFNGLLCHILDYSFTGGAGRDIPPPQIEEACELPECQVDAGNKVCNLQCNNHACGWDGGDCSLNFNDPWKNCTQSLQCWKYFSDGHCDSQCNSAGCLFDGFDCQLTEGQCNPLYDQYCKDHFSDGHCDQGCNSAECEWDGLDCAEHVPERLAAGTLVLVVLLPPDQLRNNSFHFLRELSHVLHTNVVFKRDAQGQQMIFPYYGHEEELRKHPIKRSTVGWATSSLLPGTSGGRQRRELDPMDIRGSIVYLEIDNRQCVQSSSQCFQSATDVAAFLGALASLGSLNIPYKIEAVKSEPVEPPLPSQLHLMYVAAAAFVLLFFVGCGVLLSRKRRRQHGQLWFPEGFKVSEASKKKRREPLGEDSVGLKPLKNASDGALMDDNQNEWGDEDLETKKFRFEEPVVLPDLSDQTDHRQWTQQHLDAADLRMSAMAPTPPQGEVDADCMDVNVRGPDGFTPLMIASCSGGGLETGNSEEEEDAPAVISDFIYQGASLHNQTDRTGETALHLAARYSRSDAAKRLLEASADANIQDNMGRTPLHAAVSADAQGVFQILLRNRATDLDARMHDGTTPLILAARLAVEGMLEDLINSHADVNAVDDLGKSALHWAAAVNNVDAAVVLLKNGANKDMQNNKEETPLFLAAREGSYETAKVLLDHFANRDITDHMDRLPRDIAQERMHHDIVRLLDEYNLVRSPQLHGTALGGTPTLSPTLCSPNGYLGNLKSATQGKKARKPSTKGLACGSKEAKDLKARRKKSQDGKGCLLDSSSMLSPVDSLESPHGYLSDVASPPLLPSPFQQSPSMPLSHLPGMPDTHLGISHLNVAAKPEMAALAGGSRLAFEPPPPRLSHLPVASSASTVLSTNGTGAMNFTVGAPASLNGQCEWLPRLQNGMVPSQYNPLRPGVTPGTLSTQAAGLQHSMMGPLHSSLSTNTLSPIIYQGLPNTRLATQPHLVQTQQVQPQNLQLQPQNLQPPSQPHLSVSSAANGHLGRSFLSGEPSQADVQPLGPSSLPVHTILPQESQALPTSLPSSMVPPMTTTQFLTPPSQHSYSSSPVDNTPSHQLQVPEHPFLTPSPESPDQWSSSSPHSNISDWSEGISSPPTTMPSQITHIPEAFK

Binder | EC50 [1] [nM] | EC50 [2] [nM] | IC50, human Notch1 reporter gene co-culture assay (DLL4-HEK293) [3] [nM] | EC50 [4] [nM] | EC50 [5] [nM] | Fold difference from rat 438 [6] [fold] | Kd [7] | koff [7] [s⁻¹] | kon [7] [M⁻¹ s⁻¹] | IC50, Notch1 signaling inhibition co-culture reporter assay [8] [nM] | Maximal Inhibition (%), Notch1 signaling inhibition co-culture reporter assay [8] [%]
B1 | 0.129 | 0.177 | 0.657 | 2.4 | 0.6 | 2.21 | 9.65 nM and 9.6 nM | 0.000422 | 43700 | – | –
B2 | 0.229 | 0.305 | 1.19 | 4 | 0.7 | 1.47 | 6.42 nM and 6.4 nM | 0.000389 | 60500 | – | –
B3 | 0.137 | 0.178 | 0.38 | 2.2 | 0.4 | – | – | – | – | – | –
B4 | – | – | 0.65 | 4.4 | 2.1 | 1 | 4.34 nM | 0.000229 | 52700 | – | –
B5 | – | – | – | – | – | – | – | – | – | 0.11 | 95.3
B6 | 0.172 | 0.213 | – | – | – | – | – | – | – | – | –
